From patent US20160115237A1 (UNIVERSITY OF BRITISH COLUMBIA, published 2016)

How the values were obtained:
[1] = biological target: T1, human Fas receptor (FasR) on the surface of HUVEC cells (human, UniProt P25445 26-335); assay: flow cytometry on mitomycin C-treated senescent HUVEC cells, antibody at 40 µg/ml
T1 construct: whole, on cells; also called hTNFRSM6; hTNFR6
T1 sequence (looked up): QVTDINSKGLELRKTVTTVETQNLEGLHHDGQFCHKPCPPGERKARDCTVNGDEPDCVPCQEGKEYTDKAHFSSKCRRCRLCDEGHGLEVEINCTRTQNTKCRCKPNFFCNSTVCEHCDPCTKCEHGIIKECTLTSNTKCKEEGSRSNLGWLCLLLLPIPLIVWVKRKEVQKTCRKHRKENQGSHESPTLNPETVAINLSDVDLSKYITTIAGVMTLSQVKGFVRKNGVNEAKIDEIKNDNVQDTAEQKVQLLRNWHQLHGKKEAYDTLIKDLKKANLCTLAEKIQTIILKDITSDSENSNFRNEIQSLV

[2] = biological target: PrP rigid loop peptide … (DSE3) (human)

B1: antibody AMF-3a-118 (misfolded FasR antibody) (antibody, V domains shown)
VH: QSVEESGGRLVTPGTPLTLTCKASGFSLSDSRVSWVRQAPGKGLEWIGIVGIGWNIYHANWAKGRFTISKTSSTTVDLKITSPTVEDTATYFCARGLGGGTVIWGPGTLVTVSL
VL: AQVLTQTPASVSAAVGGTVTISCQSSESVYKNNYLSWFQQKPGQPPKLLIYEASKLASGVSTRFKGSGSGTQFTLTISGVQCDDAATYYCLGEFSCYSGDCGTFGGGTAVVVKG
- binding result [1]: binds

B2: antibody c-120 (misfolded PrP rigid loop antibody) (antibody)
heavy: QSVEESGGHLVTPGTPLTLTCTVSGIDLSTYAMGWVRQAPGKGLEWIGVITKSGNTYYASWAKGRFAISKTSTTVDLKITSPTTEDTATYFCGRYGIGVSYYDIWGPGTLVTVSSGQPKAPSVFPLAPCCGDTPSSTVTLGCLVKGYLPEPVTVTWNSGTLTNGVRTFPSVRQSSGLYSLSSVVSVTSSSQPVTCNVAHPATNTKVDKTVAPSTCSKPTCPPPELLGGPSVFIFPPKPKDTLMISRTPEVTCVVVDVSQDDPEVQFTWYINNEQVRTARPPLREQQFNSTIRVVSTLPIAHQDWLRGKEFKCKVHNKALPAPIEKTISKARGQPLEPKVYTMGPPREELSSRSVSLTCMINGFYPSDISVEWEKNGKAEDNYKTTPAVLDSDGSYFLYSKLSVPTSEWQRGDVFTCSVMHEALHNHYTQKSISRSPGK
light: AQVLTQTPSPVSAAVGGTVTINCQSSQSLYNKNWLSWYQKKPGQPPKLLIYKASTLESGVSSRFKGSGSGTQFTLTISGVQCDDAATYYCQGEFSCSSADCTAFGGGTEVVVKGDPVAPTVLIFPPAADQVATGTVTIVCVANKYFPDVTVTWEVDGTTQTTGIENSKTPQNSADCTYNLSSTLTLTSTQYNSHKEYTCKVTQGTTSVVQSFNRGDC
- Kd [2]: 0.1 nM
